Results published in the DeepSol protein solubility set.

Test: soluble on expression in E. coli; label from the status in PepcDB or PDB records

With “MRNVDFSPLYRNAIGFDRLLNLMEANTAKNTSGGYPPYNIEQKDEHNYRITMAVAGFSEDQLDLTQNENMLIVKGERKAEEGKNYVYQGIAERDFERKFQLADYVKVTGASMENGLLHIDLVREIPEAMQPRKIAIGGNNLLESN” the “soluble on expression in E. coli” value was “not soluble”.
With “MSLNEELIKTGDFAKMCAVTKKALYVYEAKGLLKPAVVKDNGYRYYRLEQVDQVATIRLLEKLGSSLQEVGDFFALKDLNERQKYLGKQQEAVEREMAELGKIKSSLEFFDQRISDLKQTGLKKWRLRLARKNTWKSVLLGMVFREGHHHHHH” the “soluble on expression in E. coli” value was “not soluble”.
In the case of “MKAVQGDPNWNLVTDTYIEPNNFAELFSLLVPCHPKGEGKERTILVWKEKEFYKEENLAAFIVYGMNKAKKLPQFHKDEIPTLVRILRLCQEIGWYEEANDFMIAQGLAEFVHTSLEYETWDLLTQSVALNYLIIKYRIGELTDRDIEIWDRVKFNEKCITDCKHLLSHKEVLEFTFFYMCKRAKSLSKEQLNSDMMSLAMYCNTFVYDLYTHDLLRKYRKCTDFLSYYGPSQAVLACQRAVLSQISDRLDPLKTTHVDDYLYVMKEMMEHMTIGVMDRYGHFIGKLLSYVPFFEMIQVPQHAYYCEELLYICKGIEYKEETLRNYIFIQLHDCLPSFFRLFLKNKRYATIHDILFYWCDDEQRMSLEKKYNLSFIYEKYACG”, the “soluble on expression in E. coli” value is reported as “not soluble”.
